B1: hz29H5D8-3.2 (antibody, human IgG1, kappa, V domains shown)
VH: QVQLVQSGAEVKKPGSSVKVSCKASGYTFTNYGISWVRQAPGQGLEWMGEIYPRSVNTYYSAKFKGRVTITADKSTSTAYMELSSLRSEDTAVYYCARHYYGSSLDYWGQGTLVTVSS
VL: DIQMTQSPSSLSASVGDRVTITCITSSDIEDDMNWYQQKPGKAPKLLISEGNSLRPGVPSRFSSSGYGTDFTFTISSLQPEDIATYYCLQSDNIFTFGQGTKVEIKR
notes: Humanized, human IgG1/kappa
B2: hz135A2B10-1.1 (antibody, human IgG1, kappa, V domains shown)
VH: QVQLVESGGGLVQPGGSLRLSCAASGFAFSTYGMAWVRQAPGKGLEWVASIHKGGFSTYYPDNVKGRFTISRDNAKNSLYLQMNSLRAEDTAVYYCARHDWDGAMDYWGQGTLVTVSS
VL: DIQMTQSPSSLSASVGDRVTITCKASQDINSYLNWYQQKPGKAPKTLIYRANRLVDGVPSRFSGSGSGQDYTLTISSLQPEDFATYYCLQFDEFPYTFGQGTKVEIKR
notes: Humanized, human IgG1/kappa
B3: hz135A2B10-1.3 (antibody, human IgG1, kappa, V domains shown)
VH: QVQLVESGGGLVQPGGSLRLSCAASGFAFSTYGMAWVRQAPGKRLEWVASIHKGGFSTYYPDNVKGRFTISRDNDKNSLYLQMNSLRAEDTAVYYCIRHDWDGAMDYWGQGTLVTVSS
VL: DIQMTQSPSSLSASVGDRVTITCKASQDINSYLNWYQQKPGKAPKTLIYRANRLVDGVPSRFSGSGSGQDYTLTISSLQPEDFATYYCLQFDEFPYTFGQGTKVEIKR
notes: Humanized, human IgG1/kappa
B4: hz137G11D10-2.1 (antibody, human IgG1, kappa, V domains shown)
VH: QVQLQESGPGLVKPSQTLSLTCTVSGYSITSDYAWNWIRQHPGKGLEWIGYITYSASTSYNPSLKSRVTISRDTSKNQFSLKLSSVTAADTAVYYCARGAGTYYFDYWGQGTLVTVSS
VL: DIQMTQSPSSLSASVGDRVTITCITSTDIDEDMNWYQQKPGKAPKLLIYEDNSLRPGVPSRFSGSGYGTDFTLTISSLQPEDFATYYCLQTNNLPLTFGQGTKVEIKR
notes: Humanized, human IgG1/kappa
B5: UC-961 (antibody, V domains shown)
VH: QVQLQESGPGLVKPSQTLSLTCTVSGYAFTAYNIHWVRQAPGQGLEWMGSFDPYDGGSSYNQKFKDRLTISKDTSKNQVVLTMTNMDPVDTATYYCARGWYYFDYWGHGTLVTVSS
VL: DIVMTQTPLSLPVTPGEPASISCRASKSISKYLAWYQQKPGQAPRLLIYSGSTLQSGIPPRFSGSGYGTDFTLTINNIESEDAAYYFCQQHDESPYTFGEGTKVEIK

Tests used:
[1] = biological target: T1, ROR1 naturally expressed on human tumor cell lines (A549, Jeko-1, SW620, PA-1) (human, UniProt Q01973 30-937); experiment: cell-based or functional assay
[2] = biological target: T2, human ROR1 on stably transfected cells (NCI-H1993-ROR1, MDA-MB-468-ROR1, NCI-H1975-ROR1, 293T-ROR1-NF-kB) (human, UniProt Q01973 30-937); experiment: cell-based or functional assay
[3] = biological target: T1, ROR1 naturally expressed on human tumor …; experiment: FACS on Jeko-1 cells naturally expressing ROR1
[4] = biological target: T3, human/cynomolgus monkey ROR1 protein (Acro Biosystems, Cat. No.: RO1-H522y) (human/cynomolgus monkey, UniProt Q01973 30-403); experiment: SPR (Biacore), antibody captured on anti-hIgG CM5 chip, ROR1 protein as analyte, method of Example 5
T3 construct: Bought SPR analyte

[5] = biological target: T2, human ROR1 on stably transfected cells …; experiment: cell-based or functional assay; remark: listed apart in the source
[6] = biological target: T1, ROR1 naturally expressed on human tumor …; experiment: FACS on SW620 cells naturally expressing ROR1
[7] = biological target: T1, ROR1 naturally expressed on human tumor …; experiment: FACS on PA-1 cells naturally expressing ROR1
[8] = biological target: T1, ROR1 naturally expressed on human tumor …; experiment: FACS on PA-1 cells naturally expressing ROR1; remark: listed apart in the source
[9] = biological target: T1, ROR1 naturally expressed on human tumor …; experiment: FACS on Jeko-1 cells naturally expressing ROR1; remark: listed apart in the source
[10] = biological target: T1, ROR1 naturally expressed on human tumor …; experiment: FACS on SW620 cells naturally expressing ROR1; remark: listed apart in the source
[11] = biological target: T1, ROR1 naturally expressed on human tumor …; experiment: FACS on SW620 cells naturally expressing ROR1; remark: listed apart in the source
[12] = biological target: T1, ROR1 naturally expressed on human tumor …; experiment: FACS on PA-1 cells naturally expressing ROR1; remark: listed apart in the source
[13] = biological target: T1, ROR1 naturally expressed on human tumor …; experiment: FACS on Jeko-1 cells naturally expressing ROR1; remark: listed apart in the source
[14] = biological target: T1, ROR1 naturally expressed on human tumor …; experiment: FACS on SW620 cells naturally expressing ROR1; remark: listed apart in the source
[15] = biological target: T1, ROR1 naturally expressed on human tumor …; experiment: FACS on Jeko-1 cells naturally expressing ROR1; remark: listed apart in the source
[16] = biological target: T1, ROR1 naturally expressed on human tumor …; experiment: FACS on A549 cells naturally expressing ROR1
[17] = biological target: T3, human/cynomolgus monkey ROR1 protein …; experiment: SPR (Biacore), antibody captured on anti-hIgG CM5 chip, ROR1 protein as analyte, 1:1 model

T2 sequence (Q01973 30-937 limits assumed): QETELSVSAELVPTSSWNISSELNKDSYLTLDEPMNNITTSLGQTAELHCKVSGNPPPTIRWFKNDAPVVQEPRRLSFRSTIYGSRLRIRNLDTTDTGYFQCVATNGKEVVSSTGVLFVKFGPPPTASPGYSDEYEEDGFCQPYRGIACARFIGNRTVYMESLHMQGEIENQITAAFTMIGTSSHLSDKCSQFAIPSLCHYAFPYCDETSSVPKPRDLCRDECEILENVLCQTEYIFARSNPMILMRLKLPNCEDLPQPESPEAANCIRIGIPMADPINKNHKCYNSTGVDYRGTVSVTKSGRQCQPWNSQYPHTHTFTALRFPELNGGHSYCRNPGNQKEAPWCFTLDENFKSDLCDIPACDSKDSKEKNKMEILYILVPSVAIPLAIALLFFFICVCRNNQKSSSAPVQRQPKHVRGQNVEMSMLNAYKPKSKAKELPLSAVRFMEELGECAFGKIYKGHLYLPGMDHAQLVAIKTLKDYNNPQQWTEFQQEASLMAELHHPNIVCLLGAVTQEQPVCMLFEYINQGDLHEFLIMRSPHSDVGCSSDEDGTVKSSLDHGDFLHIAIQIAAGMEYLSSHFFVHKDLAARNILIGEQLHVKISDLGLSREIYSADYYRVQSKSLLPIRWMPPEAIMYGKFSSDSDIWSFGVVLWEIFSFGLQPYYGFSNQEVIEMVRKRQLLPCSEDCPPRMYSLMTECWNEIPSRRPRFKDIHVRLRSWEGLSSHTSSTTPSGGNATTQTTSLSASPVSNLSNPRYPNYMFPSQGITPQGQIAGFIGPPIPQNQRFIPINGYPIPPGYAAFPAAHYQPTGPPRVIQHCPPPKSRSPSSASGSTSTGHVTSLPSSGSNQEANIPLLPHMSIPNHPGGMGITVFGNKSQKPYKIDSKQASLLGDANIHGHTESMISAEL
T1 sequence (Q01973 30-937): as the sequence (Q01973 30-937 limits assumed) above
T3 sequence (Q01973 30-403 limits assumed): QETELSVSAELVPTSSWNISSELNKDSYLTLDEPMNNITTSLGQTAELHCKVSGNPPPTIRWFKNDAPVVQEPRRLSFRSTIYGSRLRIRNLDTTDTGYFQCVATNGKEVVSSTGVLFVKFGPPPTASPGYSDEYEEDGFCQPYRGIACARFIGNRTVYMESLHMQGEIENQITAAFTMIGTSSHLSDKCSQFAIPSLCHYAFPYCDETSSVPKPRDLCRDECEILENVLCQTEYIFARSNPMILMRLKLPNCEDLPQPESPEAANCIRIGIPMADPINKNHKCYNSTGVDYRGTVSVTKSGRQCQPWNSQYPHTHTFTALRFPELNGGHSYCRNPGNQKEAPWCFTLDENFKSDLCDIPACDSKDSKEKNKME

| Binder | ADCC reporter gene assay EC50 (nM), PA-1 target cells, recombinant Jurkat effector cells [1] | Internalization EC50 (nM), NCI-H1975-ROR1 cells, pH-dependent endocytosis reagent, FACS [2] | EC50 [3] | Top (MFI) [3] | Kd [4] | koff [4] | kon [4] | Internalization EC50 (nM), MDA-MB-468-ROR1 cells, pH-dependent endocytosis reagent, FACS [5] | Internalization EC50 (nM), NCI-H1993-ROR1 cells, pH-dependent endocytosis reagent, FACS [5] | EC50 [6] | Top (MFI) [6] | EC50 [7] | Top (MFI) [7] | EC50 [8] | Top (MFI) [8] | EC50 [9] | Top (MFI) [9] | EC50 [10] | Top (MFI) [10] | EC50 [11] | also measured |
| --- | --- | --- | --- | --- | --- | --- | --- | --- | --- | --- | --- | --- | --- | --- | --- | --- | --- | --- | --- | --- | --- |
| B1 | 0.06 nM | 5.19 nM | 12 pM | 89000 MFI | 197 pM | 0.000354 s⁻¹ | 1.79e+06 M⁻¹ s⁻¹ | 0.92 nM | 1.18 nM | 10 pM | 30700 MFI | 87 pM | 244000 MFI | – | – | – | – | – | – | – | – |
| B2 | 0.13 nM | 14.9 nM | – | – | 527 pM | 0.00051 s⁻¹ | 968000 M⁻¹ s⁻¹ | 1.39 nM | 1.16 nM | – | – | – | – | 166 pM | 250000 MFI | 15 pM | 88300 MFI | 22 pM | 30300 MFI | – | – |
| B3 | – | – | – | – | 575 pM | 0.000567 s⁻¹ | 985000 M⁻¹ s⁻¹ | – | – | – | – | – | – | 192 pM | 249000 MFI | 24 pM | 86700 MFI | 47 pM | 29900 MFI | – | – |
| B4 | 0.04 nM | 12.4 nM | – | – | 289 pM | 0.000792 s⁻¹ | 2.74e+06 M⁻¹ s⁻¹ | 1.44 nM | 1.24 nM | – | – | – | – | – | – | – | – | – | – | 9 pM | Top (MFI) [11]: 29500 MFI; EC50 [12]: 53 pM; Top (MFI) [12]: 227000 MFI; EC50 [13]: 10 pM; Top (MFI) [13]: 88000 MFI |
| B5 | 0.27 nM | 17.7 nM | 21 pM | 91700 MFI | 1170 pM | 0.0018 s⁻¹ | 1.54e+06 M⁻¹ s⁻¹ | 2.15 nM | 2.06 nM | 25 pM | 26500 MFI | 173 pM | 235000 MFI | 127 pM | 232000 MFI | 19 pM | 83200 MFI | 25 pM | 26500 MFI | 25 pM | Top (MFI) [11]: 26500 MFI; EC50 [12]: 127 pM; Top (MFI) [12]: 232000 MFI; EC50 [13]: 19 pM; Top (MFI) [13]: 83200 MFI; EC50 [14]: 24 pM; Top (MFI) [14]: 23900 MFI; EC50 [15]: 19 pM; Top (MFI) [15]: 66100 MFI; EC50 [16]: 35 pM; Top (MFI) [16]: 75700 MFI; Kd [17]: 20600 pM; koff [17]: 0.0273 s⁻¹; kon [17]: 1.33e+06 M⁻¹ s⁻¹ |
